Reference: patent US20140030267A1, “COMPOSITIONS, METHODS AND KITS RELATING TO RESISTIN” (The Trustees of the University of Pennsylvania, priority 1999, published 2014)

Experiments:
[1] = system: resistin gene expression; experiment: Northern blot of resistin gene expression in 3T3-L1 adipocytes treated with TZD; type: cell-based, murine; settings: rosiglitazone 1 μM
Method: 3T3-L1 cells were differentiated to adipocytes then treated with the indicated vehicles (ethanol [EtOH] or dimethylsulfoxide [DMSO]) or with the indicated TZD compounds (each at 1 μM). Then, RNA was prepared and analyzed using Northern blot analysis using resistin cDNA probe.
FIG. 6 is an image of a Northern blot depicting the time course of resistin expression down-regulation by rosiglitazone. BRL49653 (rosiglitazone) was used at a concentration of 1 μM in DMSO. The Northern blot was probed using mouse resistin cDNA. The position of resistin mRNA is indicated in the image. 3T3-L1 cells were differentiated to adipocytes then treated with rosiglitazone (1 μM) for the indicated times (in hours) before RNA was isolated. Resistin expression was examined using Northern analysis using resistin cDNA probe.
To clone and identify resistin, 3T3-L1 cells were differentiated into adipocytes using a standard protocol using differentiation medium (DM) containing dexamethasone, insulin, isobutylmethylxanthine, and fetal bovine serum as described in Green and Kehinde (1975, Cell 5:19-27) and Green and Meuth (1974, Cell 3:127-133). On the seventh day of culture, the cells were treated with either dimethylsulfoxide (DMSO) or 1 micromolar BRL49653 (rosiglitazone) in DMSO. […]

[2] = Glucose tolerance test in mice after administration of resistin; type: in vivo
Method: Prior to injection into animals, 30 ml of conditioned media harvested from recombinant 293T cells expressing resistin was concentrated into 5 ml using an Ultrafree-15 centrifugal filter device (Millipore).
Male and female mice, 9 weeks of age, were administered 200 microliters of concentrated conditioned media intraperitonially just prior to the dark cycle. Mice were consequently fasted overnight. Twelve hours later, a second intraperitional dose of concentrated CM was administered to each animal. Two hours after the second administration, the mice were given a glucose challenge of 10 microliters per gram of body weight of 20% glucose in PBS solution. Blood glucose levels were determined using a Fast-Take glucometer (Johnson & Johnson) at thirty minute intervals for a two hour period.
The blood glucose levels of mice dosed with resistin are depicted using dotted lines in FIG. 21, and control glucose values are indicated using solid lines (FIG. 21). More specifically, eight female mice (4 per group) were treated with either vehicle (solid lines) or resistin preparation (dashed lines) prepared using conditioned medium obtained from recombinant 293T cells as described elsewhere herein.

CN(CCOc1ccc(CC2SC(=O)NC2=O)cc1)c1ccccn1 (stereo not drawn) [rosiglitazone]
time after exposure at which the effect on resistin expression is maximal [1]: 48 h

B1: resistin: mouse resistin (SEQ ID NO:2) in concentrated conditioned medium of recombinant 293T cells expressing resistin (protein)
chain: SSMPLCPIDEAIDKKIKQDFNSLFPNAIKNIGLNCWTVSSRGKLASCPEGTAVLSCSCGSACGSWDIRGGKVCHCQCARIDWTAARCCKLQVAS
blood glucose 30 minutes after glucose administration ([2]; female mice, intraperitoneal resistin preparation, 30 minutes after glucose challenge): 395.+−0.67 mg/dl
glucose tolerance ([2]; mice, resistin preparation): reducing glucose tolerance to diabetic levels
